Measured values: paper PMC9574477 (Science (New York, N.Y.), 2022)

Tests used:
[1] = target: ACKR3 wild type, expressed in cells for the NanoBiT β-arrestin recruitment assay (UniProt P25106)
[2] = target: ACKR3 wild type, Tango assay construct (UniProt P25106)
[3] = target: ACKR3 wild type, expressed in cells for the NanoBiT β-arrestin recruitment assay (UniProt P25106 1-362); assay: cell-based or functional assay
ACKR3 wild type, expressed in cells for the NanoBiT β-arrestin recruitment assay (UniProt P25106 1-362), sequence (P25106 whole entry): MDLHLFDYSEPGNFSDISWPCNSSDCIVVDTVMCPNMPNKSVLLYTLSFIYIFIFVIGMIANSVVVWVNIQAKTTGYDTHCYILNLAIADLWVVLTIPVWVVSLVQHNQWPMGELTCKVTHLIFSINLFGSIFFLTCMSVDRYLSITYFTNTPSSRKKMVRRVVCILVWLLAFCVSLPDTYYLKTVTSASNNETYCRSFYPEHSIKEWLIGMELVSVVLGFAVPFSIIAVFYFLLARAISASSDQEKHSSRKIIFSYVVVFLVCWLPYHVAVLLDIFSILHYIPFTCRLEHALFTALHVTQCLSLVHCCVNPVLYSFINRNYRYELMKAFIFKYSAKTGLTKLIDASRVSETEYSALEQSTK

CXCL12, sequence (P48061 22-93): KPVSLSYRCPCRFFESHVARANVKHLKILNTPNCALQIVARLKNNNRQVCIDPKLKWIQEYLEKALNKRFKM
ACKR3 wild type, Tango assay construct, sequence (P25106 whole entry): as the sequence (P25106 whole entry) above
ACKR3 wild type, expressed in cells for the NanoBiT β-arrestin recruitment assay (UniProt P25106), sequence (P25106 whole entry): as above

Row | β-arrestin-2 recruitment to ACKR3, NanoBiT, EC50 [1] [nM] | β-arrestin-2 recruitment to ACKR3, Tango assay, EC50 [2] [nM] | β-arrestin-2 recruitment to ACKR3, NanoBiT, EC50 [3] [nM] | Molecule
1 | 0.75 | 3.9 |  | CXCL12 (from UniProt P48061 22-93) (ligand)
2 |  |  | 4.8 | FGGFMRRK [LIH383]
